Reference: paper PMC10127259

Key:
Conditions in all cases: remark: other sources report otherwise
[1] = target: T1, Nt17 peptide (the first 17 amino acids at the N-terminus of huntingtin), P42858; assay: native MS; cVSSI-MS, positive ion mode; Nt17 10 uM incubated with POPG vesicles with 20% exogenous cholesterol, 10:1 lipid:peptide, 24 h at 37 °C, 10 mM ammonium acetate; peak areas normalised to [M + 2H]2+
T1 chain: MATLEKLMKAFESLKSF

[2] = target: T1, Nt17 peptide (the first 17 amino acids …); assay: native MS; cVSSI-MS, positive ion mode; Nt17 10 uM incubated with POPC vesicles with 20% exogenous cholesterol, 10:1 lipid:peptide, 24 h at 37 °C, 10 mM ammonium acetate; peak areas normalised to [M + 2H]2+
[3] = target: T1, Nt17 peptide (the first 17 amino acids …); assay: native MS; cVSSI-MS, positive ion mode; Nt17 10 uM incubated with DOPC vesicles with 20% exogenous cholesterol, 10:1 lipid:peptide, 24 h at 37 °C, 10 mM ammonium acetate; peak areas normalised to [M + 2H]2+
[4] = target: T1, Nt17 peptide (the first 17 amino acids …); assay: native MS; cVSSI-MS, positive ion mode; Nt17 10 uM incubated with pure DOPC vesicles (0% cholesterol), 10:1 lipid:peptide, 24 h at 37 °C, 10 mM ammonium acetate; peak areas normalised to [M + 2H]2+
[5] = target: T1, Nt17 peptide (the first 17 amino acids …); assay: native MS; cVSSI-MS, positive ion mode; Nt17 10 uM incubated with pure POPC vesicles (0% cholesterol), 10:1 lipid:peptide, 24 h at 37 °C, 10 mM ammonium acetate; peak areas normalised to [M + 2H]2+

With MATLEKLMKAFESLKSF [Nt17 peptide (the first 17 amino acids at the N-terminus of huntingtin), P42858 1-17] the relative peak area of [2M + 2L] (2 Nt17 + 2 POPG), against [M + 2H]2+ [1] was 23%, the relative peak area of [2M + 3L] (2 Nt17 + 3 POPG), against [M + 2H]2+ [1] was 0.6% and the stoichiometry N [1] was 2. For the same binder, the relative integrated peak area of [2M + 2L] (2 Nt17 + 2 POPC), against [M + 2H]2+ [2] was 0.11%, the relative integrated peak area of [3M + 1L] (3 Nt17 + 1 POPC), against [M + 2H]2+ [2] was 1.1% and the total relative integrated peak area of complexes with two peptides, against [M + 2H]2+ [2] was 2.7%. The relative peak area of [2M + 3L] (2 Nt17 + 3 DOPC), against [M + 2H]2+ [3] was 0.15%, the total relative peak area of complexes with four peptides, against [M + 2H]2+ [3] was 1.2% and the total relative peak area of complexes with three peptides, against [M + 2H]2+ [3] was 4%. The total relative peak area of complexes with two peptides, against [M + 2H]2+ [3] was 8%, the relative peak area of [2M + 3L] (2 Nt17 + 3 DOPC), against [M + 2H]2+ [4] was 0.45% and the relative peak area of [3M + 1L] (3 Nt17 + 1 DOPC), against [M + 2H]2+ [4] was 3.3%. For the same binder, the relative peak area of [4M + 1L] (4 Nt17 + 1 DOPC), against [M + 2H]2+ [4] was 0.98%, the total relative peak area of complexes with three peptides, against [M + 2H]2+ [4] was 3.6% and the total relative peak area of complexes with two peptides, against [M + 2H]2+ [4] was 10.3%. The relative integrated peak area of [2M + 1L] (2 Nt17 + 1 POPC), against [M + 2H]2+ [5] was 1.3% and the relative integrated peak area of [3M + 1L] (3 Nt17 + 1 POPC), against [M + 2H]2+ [5] was 0.8%.
